According to patent publication US20050064593A1 (WALTER AND ELIZA HALL INSTITUTE OF MEDICAL RESEARCH, published 2005):

Key:
[1] = target: T1, mouse Mcl-1 lacking its hydrophobic C-terminus (yeast 2-hybrid bait in pGBT-9) (mouse, UniProt P97287 1-307); test: yeast 2-hybrid screen
T1 construct: not shown: GAL4 domain of pGBT-9

[2] = target: mouse dynein light chain 2 (DLC2) (mouse, UniProt Q9D0M5 1-89); test: yeast 2-hybrid
mouse dynein light chain 2 (DLC2), sequence (Q9D0M5 whole entry): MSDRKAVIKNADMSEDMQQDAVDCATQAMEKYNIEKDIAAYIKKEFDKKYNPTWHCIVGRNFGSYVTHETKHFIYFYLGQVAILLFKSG

T1 sequence (P97287 1-307): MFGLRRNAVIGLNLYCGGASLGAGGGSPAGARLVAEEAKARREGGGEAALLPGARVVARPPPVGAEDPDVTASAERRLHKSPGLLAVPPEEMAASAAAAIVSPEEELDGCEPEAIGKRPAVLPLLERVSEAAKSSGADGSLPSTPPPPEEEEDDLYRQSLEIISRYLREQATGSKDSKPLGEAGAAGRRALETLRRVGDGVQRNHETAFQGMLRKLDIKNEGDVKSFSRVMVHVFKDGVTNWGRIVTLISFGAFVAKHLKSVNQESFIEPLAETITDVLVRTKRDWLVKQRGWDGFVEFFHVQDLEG

Row | binding result [1] | binding result [2] | Binder
1 | binds |  | Bmf (Bcl-2 modifying factor), mouse, wild-type, as used in the yeast 2-hybrid system (other, The clone first isolated with Mcl-1 as bait was a partial one lacking the 5' end; Mouse bmf was later subcloned as bait; also called the novel protein; not shown: GAL4 domain of the yeast 2-hybrid vector (pAD-GAL4-2.1 for the library clone, a pGBT-9 derivative for Bmf as bait); limi) MEPPQCVEELEDDVFQSEDGEPGTQPGGLLSADLFAQSQLDCPLSRLQLFPLTHCCGPGLRPISQEDKATQTLSPASPSQGVMLPCGVTEEPQRLFYGNAGYRLPLPASFPAGSPLGEQPPEGQFLQHRAEVQIARKLQCIADQFHRLHTQQHQQNRDRAWWQVFLFLQNLALNRQENREGVGPW
2 |  | no binding | Bmf AAA mutant (D67K68A69:>AAA) as tested in yeast (other, Yeast construct of the mutant is not described further; also called AAA mutation; not shown: GAL4 domain of the yeast 2-hybrid vector) MEPPQCVEELEDDVFQSEDGEPGTQPGGLLSADLFAQSQLDCPLSRLQLFPLTHCCGPGLRPISQEAAATQTLSPASPSQGVMLPCGVTEEPQRLFYGNAGYRLPLPASFPAGSPLGEQPPEGQFLQHRAEVQIARKLQCIADQFHRLHTQQHQQNRDRAWWQVFLFLQNLALNRQENREGVGPW
3 |  | no binding | Bmf A69P mutant as tested in yeast (other, Yeast construct of the mutant is not described further; not shown: GAL4 domain of the yeast 2-hybrid vector) MEPPQCVEELEDDVFQSEDGEPGTQPGGLLSADLFAQSQLDCPLSRLQLFPLTHCCGPGLRPISQEDKPTQTLSPASPSQGVMLPCGVTEEPQRLFYGNAGYRLPLPASFPAGSPLGEQPPEGQFLQHRAEVQIARKLQCIADQFHRLHTQQHQQNRDRAWWQVFLFLQNLALNRQENREGVGPW
